# Test results published in patent publication US20250051444A1 (SUZHOU ZELGEN BIOPHARMACEUTICALS, published 2025).
# T1: human LRRC15 (leucine-rich repeat containing protein 15) (human, UniProt Q8TF66 22-581)
# T1 construct: whole, on cells; also called huLRRC15
# T1 sequence (looked up): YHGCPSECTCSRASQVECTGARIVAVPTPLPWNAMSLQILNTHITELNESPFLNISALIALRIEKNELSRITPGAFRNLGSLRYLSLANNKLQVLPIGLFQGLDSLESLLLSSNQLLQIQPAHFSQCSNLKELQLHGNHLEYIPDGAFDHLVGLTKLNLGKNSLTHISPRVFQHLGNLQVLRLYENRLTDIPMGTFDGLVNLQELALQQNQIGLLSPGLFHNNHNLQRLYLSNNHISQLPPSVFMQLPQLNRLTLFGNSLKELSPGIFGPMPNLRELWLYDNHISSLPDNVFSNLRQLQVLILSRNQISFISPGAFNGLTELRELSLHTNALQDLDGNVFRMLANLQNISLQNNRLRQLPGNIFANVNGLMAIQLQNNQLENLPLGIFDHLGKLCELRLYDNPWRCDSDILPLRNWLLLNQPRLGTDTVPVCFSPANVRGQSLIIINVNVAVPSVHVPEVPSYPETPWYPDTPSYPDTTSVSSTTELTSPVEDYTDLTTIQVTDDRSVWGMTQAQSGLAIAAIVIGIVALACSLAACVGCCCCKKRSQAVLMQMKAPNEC
# B1: L15-06 (antibody, V domains shown)
# VH: EVQLLESGGGLVQPGGSLRLSCAASGFTFSSYYMSWVRQAPGKGLEWVADISVSGSYTNYADSVKGRFTISRDNSKNTLYLQMNSLRAEDTAVYYCARIGSYRSFFSTDDGDSLDYWGQGTLVTVSS
# VL: not shown
# notes: From phage library screening; tested as a 'monoclonal antibody molecule'; also called L15-L06
# B2: 315-L06C08 (bispecific antibody)
# chain: not shown
# heavy: QVQLVESGGGLVKPGGSLRLSCAASGFTFSDYYMSWIRQAPGKGLEWVSDISVSSSYTNYADSVKGRFTISRDNAKNSLYLQMNSLRAEDTAVYYCARLGGYRSFFSTDDGDSLDYWGQGTLVTVSSASTKGPSVFPLAPSSKSTSGGTAALGCLVKDYFPEPVTVSWNSGALTSGVHTFPAVLQSSGLYSLSSVVTVPSSSLGTQTYICNVNHKPSNTKVDKRVEPKSCDKTHTCPPCPAPEFEGGPSVFLFPPKPKDTLMISRTPEVTCVVVDVSHEDPEVKFNWYVDGVEVHNAKTKPREEQYNSTYRVVSVLTVLHQDWLNGKEYKCKVSNKALPASIEKTISKAKGQPREPQVCTLPPSRDELTKNQVSLTCLVEGFYPSDIAVEWESNGQPENNYKTTPPVLDSDGSFFLYSDLTVDKSRWQQGNVFSCSVMHEALHNHYTQESLSLSPGK
# light: not shown
# notes: heterodimeric IgG1 Fc; also called bispecific antibody of structure c (scFv-scFv-Fc x Fab-Fc)
# B3: 153-L06C (bispecific antibody)
# chain 1: not shown
# chain 2: EPKSCDKTHTCPPCPAPEFEGGPSVFLFPPKPKDTLMISRTPEVTCVVVDVSHEDPEVKFNWYVDGVEVHNAKTKPREEQYNSTYRVVSVLTVLHQDWLNGKEYKCKVSNKALPASIEKTISKAKGQPREPQVCTLPPSRDELTKNQVSLTCLVEGFYPSDIAVEWESNGQPENNYKTTPPVLDSDGSFFLYSDLTVDKSRWQQGNVFSCSVMHEALHNHYTQESLSLSPGK
# notes: Targets LRRC15 and CD3; heterodimeric IgG1 Fc; also called bispecific antibody of structure b (scFv-scFv-Fc x Fc)
# B4: L15-08 (antibody, V domains shown)
# VH: QVQLVESGGGLVKPGGSLRLSCAASGFTFSDYYMSWIRQAPGKGLEWVSDISVSSSYTNYADSVKGRFTISRDNAKNSLYLQMNSLRAEDTAVYYCARLGGYRSFFSTDDGDSLDYWGQGTLVTVSS
# VL: not shown
# notes: From phage library screening
# B5: L15-03 (antibody, V domains shown)
# VH: QVQLVQSGAEVKKPGSSVKVSCKASGGTFSSYTISWVRQAPGQGLEWMGGIIPMFGTANYAQKFQGRVTITADESTSTAYMELSSLRSEDTAVYYCARGVALLATDFDYWGQGTLVTVSS
# VL: QSALTQPASVSGSPGQSITISCTGTSSDVGGYNYVSWYQQHPGKAPKLMIYEVSNRPSGVSNRFSGSKSGNTASLTISGLQAEDEADYYCQSWTHDNSVVFGGGTKLTVL
# notes: From phage library screening; also called anti-LRRC15 antibody L15-03
# B6: L15-07 (antibody, V domains shown)
# VH: QVQLVQSGAEVKKPGSSVKVSCKASGGTFSTYAISWVRQAPGQGLEWMGGITPMFGTPNYAQKFQGRVTITADESTSTAYMELSSLRSEDTAVYYCARGDWYDYHFDYWGQGTLVTVSS
# VL: QSALTQPASVSGSPGQSITISCTGTSSDVGGYNYVSWYQQHPGKAPKLMIYEVSNRPSGVSNRFSGSKSGNTASLTISGLQAEDEADYYCQSYANRDNFVVFGGGTKLTVL
# notes: From phage library screening
# Molecular target: T1, human LRRC15 (leucine-rich repeat …)
# Assay: FACS on CHO cells expressing human LRRC15
# Method: Furthermore, the binding ability of the LRRC15 antibodies of the present invention to CHO cells expressing LRRC15 was tested. Therein, CHO cells expressing LRRC15 were prepared by the following method: the full-length sequence gene fragments of human, mouse and monkey LRRC15 were obtained by whole gene synthesis, and then these fragments were inserted into the backbone of the stable expression vector to obtain the expression plasmid vectors. These three plasmids were transfected into CHO cells, and monoclonal cell lines were screened under the pressure of puromycin, which are the flow cytometry cell lines used in this example.
# CHO cells expressing LRRC15 were washed with FACS buffer (0.5% BSA in PBS) and resuspended at 2E6 cells/ml with the gradient diluted LRRC15 antibodies. The resuspension was incubated on ice for 30 minutes, then washed twice with FACS buffer and incubated with the second antibody on ice for 30 minutes. After washing the resuspended cells with FACS buffer again, the cells were detected by flow cytometry. Based on the measured mean fluorescence intensity, the half maximal binding concentration (EC50) of each antibody was determined.
row,Binder,binding result
1,B1,binds
2,B2,binds
3,B3,binds
4,B4,binds
5,B5,binds
6,B6,binds
